Test results published in the supplement of paper PMC10126150.
± gives the standard deviation of the averaged measurements.

tested on: ATP; test: switch fluorescence ratio, 500 uM ATP over buffer (Cy3 cluster intensity, sum of 5 cycles each) (fold (ratio)); higher = stronger signal-on switching upon ATP binding; sequences stand for … in TCGTCGGCAGCGTCAGATGTGTATAAGAGACAGTTTTTTTTTTTTTTTTTTTTTTTTT…TC; conditions: aptamer strand: ATP DNA aptamer (quencher-CACCTGGGGGAGTATTGCGGAGGAAGG + anchor), 100 nM annealed; ATP concentration: 500 uM
Procedure, shortened: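 Between each of five buffer/ATP cycles, the flow-cell was stripped with NaOH and re-annealed. Each cycle imaged Cy3-labelled switching-strand clusters, annealed to 100 nM quencher-labelled ATP aptamer on a modified Illumina MiSeq flow-cell, first in selection buffer and then after 15 min with 500 uM ATP at 22 °C. The fluorescence ratio is summed target-cycle over summed buffer-cycle Cy3 intensity per cluster, averaged per switch-domain sequence, with clusters outside 100-1000 RFU excluded.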
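Note: ATP exposure 15 min at 22 °C before imaging.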

Compared with ATTGAATTTG, AAATTAGTGT is lower in switch fluorescence ratio: 0.9999 ± 0.0013 for the first, 0.968 ± 0.018 for the second.

GAAGCGGGTG and CGTATCAAAA are within error of each other in switch fluorescence ratio: 1.1 ± 0.1 for the first, 1.02 ± 0.019 for the second.

TGTTGGGCTC and GGCTTTGAAG are within error of each other in switch fluorescence ratio: 0.989 ± 0.047 for the first, 0.9951 ± 0.0023 for the second.

First: CCGCATTGGT
Second: TGGGTGAAAA
The switch fluorescence ratio of the first is higher: 4.77 ± 0.66 for the first, 1.001 ± 0.0036 for the second.

GAGTTTTGGC and GTGTGGTTTT are within error of each other in switch fluorescence ratio: 0.952 ± 0.09 for the first, 1.03 ± 0.015 for the second.

CGGTTTGGTG and TAAGAATGGG are within error of each other in switch fluorescence ratio: 1.01 ± 0.029 for the first, 0.9966 ± 0.0078 for the second.

AAGAGGGATG and GACCGATGGG are within error of each other in switch fluorescence ratio: 0.988 ± 0.043 for the first, 1.01 ± 0.013 for the second.

TGTAAGGATG and CGATGGTCTG are within error of each other in switch fluorescence ratio: 0.996 ± 0.013 for the first, 0.9872 ± 0.0018 for the second.

Going from AACTGGAGGA to GGTCGGGGAG, the switch fluorescence ratio rises from 0.9715 ± 0.002 to 0.9987 ± 0.0028.

ATTTTGCGTG and GGGGGTCGCG are within error of each other in switch fluorescence ratio: 0.98 ± 0.029 for the first, 0.991 ± 0.034 for the second.

GAACGGCGGA and GTGGGGTCTT are within error of each other in switch fluorescence ratio: 0.9811 ± 0.002 for the first, 1 ± 0.019 for the second.

TATCCTTTCA and AAATTGTCAA are within error of each other in switch fluorescence ratio: 1.04 ± 0.026 for the first, 1.01 ± 0.05 for the second.

Compared with GTATGCTTGG, GGGAGTAAGG is higher in switch fluorescence ratio: 0.9959 ± 0.0042 for the first, 1.024 ± 0.0025 for the second.

AGGAGTATGG and CGTAGGCGTA are within error of each other in switch fluorescence ratio: 1.02 ± 0.015 for the first, 0.98 ± 0.03 for the second.

Going from TTACGGTCCA to TGGAAGGTTG, the switch fluorescence ratio falls from 1.05 ± 0.017 to 0.9808 ± 0.0066.

ACATAGTTTG and GTGATACCCG are within error of each other in switch fluorescence ratio: 0.9892 ± 0.0034 for the first, 1.02 ± 0.058 for the second.

TTTGGTTCGC and CAGTTGGGAC are within error of each other in switch fluorescence ratio: 0.971 ± 0.037 for the first, 1 ± 0.054 for the second.

Compared with TTAGGGTATT, CGTAGCTTTT is higher in switch fluorescence ratio: 1.02 ± 0.028 for the first, 1.82 ± 0.67 for the second.

GAGGCGTGTG and TAATCGGTG are within error of each other in switch fluorescence ratio: 0.985 ± 0.029 for the first, 0.9805 ± 0.0024 for the second.

ATGTATTTTT and GGGGTGACGG are the same in switch fluorescence ratio: 1 ± 0.031 for the first, 1.004 ± 0.0055 for the second.

Compared with GTACGTAGGC, ATCTGCAACA is higher in switch fluorescence ratio: 1.03 ± 0.06 for the first, 1.62 ± 0.042 for the second.

AGGGCGGGGA and AACCTGGGGG are within error of each other in switch fluorescence ratio: 1.01 ± 0.058 for the first, 1.1 ± 0.15 for the second.

First: GATTATTGTA
Second: CCACTTGGTC
The switch fluorescence ratio of the first is lower: 0.9762 ± 0.0045 for the first, 1.06 ± 0.064 for the second.

Compared with GAGCTGGGTG, TTTGGAGTCT is lower in switch fluorescence ratio: 1.09 ± 0.043 for the first, 0.982 ± 0.031 for the second.

CGATTCAAGG and TTTTTTAATC are within error of each other in switch fluorescence ratio: 1.03 ± 0.017 for the first, 1.02 ± 0.03 for the second.

GAGAAGAAGC and TGGGGGTCGT are within error of each other in switch fluorescence ratio: 1 ± 0.025 for the first, 1.02 ± 0.024 for the second.

AAAATGCGAG and TTGAGAAATT are the same in switch fluorescence ratio: 1 ± 0.0062 for the first, 1 ± 0.014 for the second.

Compared with CAAGTTGTTT, CCTGCATGTG is higher in switch fluorescence ratio: 0.996 ± 0.021 for the first, 1.26 ± 0.02 for the second.

GAATGTAGGT and ATGCGTCGGA are within error of each other in switch fluorescence ratio: 0.993 ± 0.037 for the first, 1.032 ± 0.0066 for the second.

GGAAACGGGT and CTTTTGGAGT are within error of each other in switch fluorescence ratio: 1.02 ± 0.014 for the first, 0.986 ± 0.05 for the second.

AGGTTTATGC and GATGGAGGGC are within error of each other in switch fluorescence ratio: 0.977 ± 0.066 for the first, 1.05 ± 0.039 for the second.

AAAGGAGTA and CGAGGGAACG are within error of each other in switch fluorescence ratio: 1.01 ± 0.037 for the first, 1 ± 0.04 for the second.

TCGAAACTGG and CGGGTTGTTA are within error of each other in switch fluorescence ratio: 1.09 ± 0.11 for the first, 0.9951 ± 0.0081 for the second.

GATAGGATGG and TCGGGTAAAA are within error of each other in switch fluorescence ratio: 0.9842 ± 0.0027 for the first, 1.01 ± 0.028 for the second.

TCTTTCAGGA and TGTTATAGAT are within error of each other in switch fluorescence ratio: 0.999 ± 0.013 for the first, 0.987 ± 0.025 for the second.

CATGGTGGCG and GATTGACAAT are within error of each other in switch fluorescence ratio: 1.01 ± 0.022 for the first, 1.03 ± 0.031 for the second.

TCATTCGGTG and GACTTTTTGG are within error of each other in switch fluorescence ratio: 1.05 ± 0.041 for the first, 0.998 ± 0.027 for the second.

TATATATTAA and GGGTTATTTC are within error of each other in switch fluorescence ratio: 1.001 ± 0.0023 for the first, 1.02 ± 0.023 for the second.

GTTTTTGGGC and GGTCGTGCGC are within error of each other in switch fluorescence ratio: 0.985 ± 0.026 for the first, 0.996 ± 0.029 for the second.

ACGACTTTGT and GATGCAAGTG are within error of each other in switch fluorescence ratio: 1.02 ± 0.032 for the first, 1.07 ± 0.033 for the second.

TTGCGTATGG and TTGGTCGGGG are within error of each other in switch fluorescence ratio: 1.01 ± 0.021 for the first, 0.991 ± 0.023 for the second.

Compared with AATAAGTCCT, GGCGCATTAT is higher in switch fluorescence ratio: 1.03 ± 0.038 for the first, 1.66 ± 0.061 for the second.

AAGGGTTGTC and TTTGTTTTGA are within error of each other in switch fluorescence ratio: 0.999 ± 0.088 for the first, 1.02 ± 0.027 for the second.

First: TAGACTTTGG
Second: CGACCACGTA
The switch fluorescence ratio of the first is lower: 0.968 ± 0.025 for the first, 1.12 ± 0.029 for the second.

First: CTTAGGACGC
Second: AGGCACGCTG
The switch fluorescence ratio of the first is higher: 1.22 ± 0.0055 for the first, 1.02 ± 0.014 for the second.

First: AATCGTGTAT
Second: TCAAGGGCAG
The switch fluorescence ratio of the first is lower: 0.983 ± 0.035 for the first, 1.0257 ± 0.00011 for the second.

TAAGAGCCGT and TTGGTGGTTT are within error of each other in switch fluorescence ratio: 1.02 ± 0.012 for the first, 0.988 ± 0.027 for the second.

TTAAGTGATT and TTTATTGTGG are within error of each other in switch fluorescence ratio: 0.999 ± 0.025 for the first, 0.9934 ± 0.0071 for the second.

GCTGTTAGCA and GGGGTTTTCC are within error of each other in switch fluorescence ratio: 1.02 ± 0.034 for the first, 1.01 ± 0.014 for the second.

Compared with GATACGCGGG, AAGGGAGCAA is higher in switch fluorescence ratio: 0.9947 ± 0.0057 for the first, 1.09 ± 0.037 for the second.

Going from GATTCTGGCA to GCTAAATCGC, the switch fluorescence ratio rises from 0.9715 ± 0.0057 to 1.04 ± 0.034.

First: ATTCGGGCTT
Second: TTAAAAATAC
The switch fluorescence ratio of the first is lower: 0.976 ± 0.013 for the first, 1.06 ± 0.025 for the second.

CCAGTAGGTC and ACCGGGTTGG are within error of each other in switch fluorescence ratio: 1.03 ± 0.022 for the first, 0.999 ± 0.01 for the second.

Compared with ATGGGTGATA, TCGTTTCATA is lower in switch fluorescence ratio: 0.9935 ± 0.0092 for the first, 0.9784 ± 0.0036 for the second.

CATAGGTCGG and TGAGGGTTCT are within error of each other in switch fluorescence ratio: 0.974 ± 0.021 for the first, 0.979 ± 0.02 for the second.

CTTTGGTAGG and GGGTGATGGG are within error of each other in switch fluorescence ratio: 0.992 ± 0.025 for the first, 0.977 ± 0.032 for the second.

Going from TTTTACTTTA to CATGTGTGAG, the switch fluorescence ratio falls from 1.06 ± 0.032 to 0.949 ± 0.026.

TTCGTCTTTT and GAGGAAATTG are within error of each other in switch fluorescence ratio: 0.98 ± 0.016 for the first, 0.963 ± 0.054 for the second.

GAACTTGTCT and AGTTTGAGTA are within error of each other in switch fluorescence ratio: 1.02 ± 0.036 for the first, 1.01 ± 0.027 for the second.

Compared with TTGATCAGTA, CAACGGGTGC is higher in switch fluorescence ratio: 1.02 ± 0.02 for the first, 1.75 ± 0.21 for the second.

TTTCTATGGG and GAAAAAGCCC are within error of each other in switch fluorescence ratio: 1.03 ± 0.033 for the first, 1.04 ± 0.031 for the second.

First: TTCATATTG
Second: GATAATTGTA
The switch fluorescence ratio of the first is higher: 0.9923 ± 0.0019 for the first, 0.9822 ± 0.0033 for the second.

GACATAGTTT and TCTAATTCAA are within error of each other in switch fluorescence ratio: 1.021 ± 0.01 for the first, 0.996 ± 0.018 for the second.

ATTGGAGGCA and ATGGGCACGT are within error of each other in switch fluorescence ratio: 1.03 ± 0.03 for the first, 0.983 ± 0.019 for the second.

AGAGTCTATC and GCTTTTGGTA are within error of each other in switch fluorescence ratio: 0.972 ± 0.044 for the first, 1.002 ± 0.0095 for the second.

ATGCGTATTT and TAAGGGAATG are within error of each other in switch fluorescence ratio: 0.975 ± 0.039 for the first, 0.985 ± 0.061 for the second.

Going from TTTCGATTAC to GTTTTTTATC, the switch fluorescence ratio falls from 1.07 ± 0.018 to 1 ± 0.029.

TATGTGAGTA and GGCTTAGGCA are the same in switch fluorescence ratio: 1.01 ± 0.013 for the first, 1.01 ± 0.04 for the second.

First: ATCCGTGAGA
Second: TGAGTTTTAG
The switch fluorescence ratio of the first is higher: 1.05 ± 0.02 for the first, 0.972 ± 0.031 for the second.

Compared with CCAGTTTTTT, TTTGAAGAGT is higher in switch fluorescence ratio: 1.002 ± 0.0099 for the first, 1.04 ± 0.017 for the second.

GTTATAGGGT and GGGACGGGGA are within error of each other in switch fluorescence ratio: 1.01 ± 0.02 for the first, 0.978 ± 0.026 for the second.

Going from CGGCAGAAAT to TAGAGTTCTC, the switch fluorescence ratio rises from 0.967 ± 0.022 to 1.01 ± 0.013.

AAGGGGAGGG and CAGGTTAGGT are the same in switch fluorescence ratio: 1 ± 0.013 for the first, 1.004 ± 0.01 for the second.

GAGCTATTCG and CCAGGTTTTT are within error of each other in switch fluorescence ratio: 1.01 ± 0.047 for the first, 1.04 ± 0.017 for the second.

CATTTAAAGC and AAGGCGTACT are within error of each other in switch fluorescence ratio: 1 ± 0.018 for the first, 1.03 ± 0.026 for the second.

TAGGTTTAAT and ATCGGAGTTC are within error of each other in switch fluorescence ratio: 0.992 ± 0.036 for the first, 0.989 ± 0.047 for the second.

Compared with CTCGGTATGC, GGGCAAGGTC is lower in switch fluorescence ratio: 1.257 ± 0.0034 for the first, 1.03 ± 0.034 for the second.

TGGGGGCACT and GGACTAGTTA are within error of each other in switch fluorescence ratio: 0.982 ± 0.022 for the first, 0.99 ± 0.021 for the second.

AAATGAGTTA was tested, and the switch fluorescence ratio was 0.99 ± 0.019.
